Reference: the DeepSol protein solubility set

Test: soluble on expression in E. coli; label from the status in PepcDB or PDB records

Soluble on expression in E. coli, not soluble:
MGSDKIHHHHHHMLNLDFAKRVIIETAKQEWVDSPASGVRRKLLEREEAERGRATSIVEYKPGASFSTHEHPLGEEILVLEGVFSDENGDYPAGTYIRNPPGSSHAPFSKDGCKLLVKLHQFQPTDTQVVRINTHEAEWLPGQGGLEVMPLHSHGTEHVALVKWPANEVFKPHRHLGGEEILVLSGEFCDEHGRYPEGTWMRSPHTSVHHPFVDRETIIWVKTGHLG
MGSDKIHHHHHHMLNMSNVPNDSVEEDGRLPTGKLPSAIGKNHRIAVVDTHFHLWKSQEIAPPSGIMADPSLFRDFDWSDYELAMQGVALEAAIHVQVHHGSEKAKSEYGRVERFAAEHAPIAGMIAWAPLESPGVEREIAELAQSPLVAGVRRLTQQEPDELFCARPQFVAGAKLLASYGLVCEVCVLEHQLKGVIALASACPELTIILDHLGKPHLAEPPTEHWLENMRILGMLENVVCKVAPTPLWASDPPLTAAHAAPFIEYVAEHFGWDRLIYGSNWPPLRILTDDASQWADIVFKTLHWAKADELGRLFSENARRIFRLNKGHR
MGSDKIHHHHHHMLNSQSKLDQEVIEGIHRIRENGVLPFIATGRGHFELDEIMSLTGISGAVAMNGQYIVLDGETIYKEEIPTSSVEKLLEAASPHSEALSFYDSQGYWVSELTDLAKTAYAYTHMPMPQADARRYLSQEVNMLLVLTNQLSQVDYYKERVPELNFFMNSPSSIDVTNSTTNKGTGINHVKEVLNFTGQTFAFGDGRNDLDLFKAADHRTAMGNAVPELKELADFISTENTNHGIINAFNHWGIM
MGSDKIHHHHHHMLQLTQVRIWVITFKSYLRMNKNMIKGMIVFATIAEKGSMSAAAQQLNLSSSAVSQQVTKLEMDMGISLFHRNTRNLTLTEAGSLFYENCRKVISIVDSTEQKLNNLKGIPSGELKIAAPVGFGGGLLSEPFQYLLATHPQISLNLVMQDGPIDIVNDGIDLAICIGPLSDSNLIARHLADWRMLLCTSPDYLPMHHNIKHPSELAAFNRINHNYTKGELLTHHPSLECFELTGQRISVNNMQTLIQLTLDGLGYAALPEPEVLDYLDKGVLVPLLPEWSFNTYSVYSVTSARDRQPAKVKEALNALSQYFSQTDFNHADQLKGGSYQTEHIKSGKEHRLGT
MGSDKIHHHHHHMLSLKNINFKGVKGINELELTLSDNPINVLIGTNGIGKTKALEALYTLLIFTNTAFQKYAMNGKDVVFNECLIANEQVIRIDNTESYTYIKQFFTNNKLSHSYPVIFIAAQNRGKIKSENSNSISPLGNADTRAYNYFRHIIRSMENDFSSLNMDMPIEEWIIQRANSSTSYQDEEDNRELELISLLKILNKIDERISCDKSTLKISGDNQVSILVDGKKTKLSALSSGFASLIKIIQSIIAGYSFFTNSRQIENVEGYVLIDEIESHLHLEWQTKILPILSEVFPYTRFIITTHSSLILSQLYTGSASRLVHEGSKIINEDIPNASNFTLIDLLQEAFDIDLNQIKISSTTAKHQERVKKAILDLLGA
MGSDKIHHHHHHMLSLSKPLQEFYRLDKCLSKHGTRFEFVNDKEIICSPDESNTHTFVILEGVVSLVRGDKVLIGIVQAPFIFGLADGVAKKEAQYKLIAESGCIGYRLSSSQTLAIIEQNQLWREAFCWIVWKSQVLELRDKQLIGNNSYDQIRATLMTMIEWDEELRSRIGVMNYIHQRTRVSRSVVAEVLAALRKGNYIEMNKGKLISINRLPSEY
MGSDKIHHHHHHMLSMAGQVIAEDTAKAIEAAVHHEARLERDKARDGSRHPEAILNFFEVAPGQRVLDLFSGGGYYSELLARVVGEQGSVLVHNNQAYLPFAKEDLAERHYQERLPNAEVIISEADELQLPAASFDRIFFILGFHDTYYHEPGWPAIDRERLLQQMFTSLKPGGIVAIIDHDAAPESDTDTAHELHRLAKRHVVDAMEAAGFKLQGSLAVLENPEDKLTLSAFDEAVRGKTSRYVLMFVKPKL
MGSDKIHHHHHHMLSNRELLQKLLKGIETGDPAAAAVVNEEKYIQHYPQTHEGSEGLAVLFARLAKTNPRVRFVRVFEDGDFAFAHNEYDFASLRVAFEVFRFENGRAVEHWDNIQPMLGPNPSGRGMLDGVTQITDLERTEANRALVRDFAQRVLVGRQLDFLGSCVDDGLIQHDPEIADGRAAYRAALEAVTNGQPRLHYTRLHRVLAEGNFVLCMCEGERDGVHSSFYDLFRVENDTIIEHWNTIEAIAPRNEWKNENGKF
MGSDKIHHHHHHMLSRTADHLYWMARYIERAENMARVLDVTYNMSLVPNASQSETTLWEPALQIAGGVDSYRQEYGEVTAGGVVRFLAMDTKNPSSIYSTLRSARENARSVRVTLSAETWENINALWLEFSQFVGMDLMQKGLGEFCDWVKSRSHLFRGVSFGTMLRDDAFRFLRLGTFIERADNTARLLDVKYHLLLPSGEEVGGAVDYYEWSAILRAVSAFHAYQKVFNDAIEPWKVAELLVLREDMPRSLHACFSEITPILDQLNGRHSSECRRLAGELHARLRYGRMTDIFQGGLHEFLTDFITSNNNLGAEIQRTFLNAPINGLAAETE
MGSDKIHHHHHHMLSTANITMQFGAKPLFENVSVKFGEGNRYGLIGANGCGKSTFMKILGGDLEPTSGQVMKDATTRLGKLSQDQFAFESERVIDTVIMGNTELWEVAAERERIYSQTEMSEEDGMKVADLEVRYAELDGYTAEARAGELLLGLGIPLVQHTQPMSVVAPGWKLRVLLAQALFSDPDVLLLDEPTNHLDINTIRWLEEILRSRSSTMLIISHDRHFLNRVCTHMADLDYGELTLFPGNYDEYMTAATQARERLHADNAKKKAEIAELQQFVSRFSANASKAKQATSRQRKIDKIQLDEVKPSSRVSPFIRFEQTKKIHRHALNAEKLSKAWGDNVLFERFDLQVEAGERVAIIGPNGIGKTTLLNCLVGTMTPDAGEVKWTDAAEVGYFAQDHADDFEGGETLFEWMRQWTTEGEQTVRGALGRMLFSNDDIGKSVKVISGGEQGRMLFGKLALQKPNVLVMDEPTNHLDMESIEALNLALENYPGTLIFVSHDREFVGSLATRIIELKDDDIVDFSGSYDDYLRSQSIYD
MGSDKIHHHHHHMLTKERTLQYFHEYFSEWIEIYKRGAVRPVTYQKYLMTLQRLTELSPNLKICELDKRKYQTLLNDYAKTHERQTTMDFHHHLKSAILDAMDEGLLTIDPTRKVIIKGKPVSDKKNKFLSQFELQSLLKSLNLTDKPNWDWFILLVAKTGLRFSEALALTPKDFDFECQKVKISKTWNYKNAEGGFGETKNLSSKRTIQIDIQLNTQIERLSKDLADDEPIFVQGRVFNSTVNNRLKVLCKKAGVPIISAHCLRHTHASLLIFAGVSIASIAKRLGHSSISTTQETYLHIIKELESQDNDKIMSHLSMITQ
MGSDKIHHHHHHMLYQLHEFQRSMLHPLTAWAQATAKTFTNPLSPLSLVPGAPRLAAGYELLYRLGKEYEKPAFDIKSVRSNGREIPIVEQTIMEKPFCRLVRFKRYADDPDTIKLLKDEPVVLVAAPLSGHHATLLRDTVRTLLQDHKVYVTDWVDARMVPAEHGPFHLSDYIYYIQEFIRHIGADKLHVISVCQPTVPVLAAISLMASAGEKTPLTMTMMGGPIDARKSPTAVNSLATNKSFEWFENNVIYTVPANYPGHGRRVYPGFLQHAGFVAMNPDRHLSSHYDYYLSLIQGDADDAEAHVRFYDEYNAVLDMAAEYYLDTIREVFQEFRLANGTWTIDGNPVRPQDIKGTALLTVEGELDDISGAGQTSAAHDLCAGIPQTHKHHLSAAKCGHYGIFSGRRWRDEIYPQLRDFIRKYR
MGSDKIHHHHHHMMDRQFQHAMLPQPTHDELARQNFVQSLKTHIFRNISPGNKVVYEKLAKPKFEQEHQRPPQNRHEIREVMQHESYYRWTSALKRIHQEILWDAVNTSVGRQLPELIERAKDRGGELGTLTLDPNFQIPNYQKAVDIHCMPGGYHSEFTGGDVAAGATYDRGAYLYGLGWLGPLNNDMGLSIVQNYLLPEYPDFRPRKILDMGCSVGNSTLPYVDAYPDAEVHAIDVGAPMLRYGHARAEALGKRVHFWQQNAEHTNFPDESFDLVVSHILLHEIPPSAVRKVMQESYRLLAPGGIMLHLEAPLYRHLDVYTQFIFDWETANNNEPFWSAVRDLDLVTLATEAGFAPDKTFEKFVPNGAWKAKVTNGLFQNGNSGSLNTWFVVAATK
